Measured values reported in patent publication US20220010021A1 (Sanofi, published 2022).

T1: human beta-Klotho (KLB) (human, UniProt Q86Z14 53-997)
T1 construct: bought protein; also called human KLB
T1 sequence (looked up): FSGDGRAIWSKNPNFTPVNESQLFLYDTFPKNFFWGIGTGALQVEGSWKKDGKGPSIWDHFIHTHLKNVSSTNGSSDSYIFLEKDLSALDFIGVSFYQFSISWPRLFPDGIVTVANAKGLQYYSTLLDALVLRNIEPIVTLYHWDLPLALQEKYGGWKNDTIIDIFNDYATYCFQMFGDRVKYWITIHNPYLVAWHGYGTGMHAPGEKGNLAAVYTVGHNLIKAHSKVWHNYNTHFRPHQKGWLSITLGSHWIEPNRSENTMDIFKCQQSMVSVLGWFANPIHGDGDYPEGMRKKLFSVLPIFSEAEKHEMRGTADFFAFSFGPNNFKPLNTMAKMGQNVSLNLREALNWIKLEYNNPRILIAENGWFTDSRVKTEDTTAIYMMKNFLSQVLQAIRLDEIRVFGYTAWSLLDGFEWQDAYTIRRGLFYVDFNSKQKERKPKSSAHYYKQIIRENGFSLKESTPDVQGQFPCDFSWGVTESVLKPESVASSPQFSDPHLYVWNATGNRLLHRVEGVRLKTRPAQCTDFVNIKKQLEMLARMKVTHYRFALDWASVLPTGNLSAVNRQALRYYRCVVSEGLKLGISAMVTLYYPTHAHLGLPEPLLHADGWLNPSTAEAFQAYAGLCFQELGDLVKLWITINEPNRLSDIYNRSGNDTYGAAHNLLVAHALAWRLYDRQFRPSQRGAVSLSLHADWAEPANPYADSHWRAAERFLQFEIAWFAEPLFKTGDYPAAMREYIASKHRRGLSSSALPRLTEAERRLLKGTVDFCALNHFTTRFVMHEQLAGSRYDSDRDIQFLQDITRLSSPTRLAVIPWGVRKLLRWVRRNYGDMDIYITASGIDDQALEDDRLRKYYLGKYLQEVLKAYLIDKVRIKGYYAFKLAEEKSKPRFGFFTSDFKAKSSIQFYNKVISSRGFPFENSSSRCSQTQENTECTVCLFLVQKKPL


How the values were obtained:
human beta-Klotho (KLB) = molecular target: T1, human beta-Klotho (KLB); test: SPR;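 note: Anti-KLB antibodies captured on anti-human Fc CM5 chip, KLB injected as analyte, 180 s association and 1800 s dissociation, fitted to 1:1 binding model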
[1] = molecular target: human FGFR1c + KLB receptor complex on HEK293 iLite FGF21 reporter cells (human, UniProt P11362 22-822; Q86Z14 1-1044); test: cell-based or functional assay
human FGFR1c + KLB receptor complex on HEK293 iLite FGF21 reporter cells, sequence (P11362 22-822, chain 1 of 2): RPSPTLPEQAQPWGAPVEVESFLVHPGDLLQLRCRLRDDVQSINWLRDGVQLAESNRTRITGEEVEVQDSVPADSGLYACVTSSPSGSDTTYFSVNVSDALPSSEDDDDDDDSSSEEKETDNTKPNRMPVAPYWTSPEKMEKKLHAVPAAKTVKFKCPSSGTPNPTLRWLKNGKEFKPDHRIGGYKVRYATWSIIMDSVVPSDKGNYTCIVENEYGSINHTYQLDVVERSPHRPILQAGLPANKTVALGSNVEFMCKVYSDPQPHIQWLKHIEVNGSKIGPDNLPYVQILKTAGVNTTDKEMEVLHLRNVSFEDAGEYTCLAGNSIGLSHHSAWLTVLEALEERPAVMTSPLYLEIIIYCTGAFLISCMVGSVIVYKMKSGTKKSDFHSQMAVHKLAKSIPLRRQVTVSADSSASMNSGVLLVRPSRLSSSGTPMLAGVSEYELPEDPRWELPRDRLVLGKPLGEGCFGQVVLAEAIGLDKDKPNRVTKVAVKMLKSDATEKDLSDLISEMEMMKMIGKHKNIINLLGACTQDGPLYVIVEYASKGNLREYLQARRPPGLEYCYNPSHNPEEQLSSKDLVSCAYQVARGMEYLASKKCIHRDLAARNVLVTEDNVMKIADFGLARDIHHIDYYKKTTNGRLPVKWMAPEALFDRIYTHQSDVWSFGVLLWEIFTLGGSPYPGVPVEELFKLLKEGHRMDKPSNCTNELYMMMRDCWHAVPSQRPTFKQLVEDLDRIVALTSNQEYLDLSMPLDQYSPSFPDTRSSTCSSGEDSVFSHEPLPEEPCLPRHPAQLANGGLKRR
human FGFR1c + KLB receptor complex on HEK293 iLite FGF21 reporter cells, sequence (Q86Z14 whole entry, chain 2 of 2): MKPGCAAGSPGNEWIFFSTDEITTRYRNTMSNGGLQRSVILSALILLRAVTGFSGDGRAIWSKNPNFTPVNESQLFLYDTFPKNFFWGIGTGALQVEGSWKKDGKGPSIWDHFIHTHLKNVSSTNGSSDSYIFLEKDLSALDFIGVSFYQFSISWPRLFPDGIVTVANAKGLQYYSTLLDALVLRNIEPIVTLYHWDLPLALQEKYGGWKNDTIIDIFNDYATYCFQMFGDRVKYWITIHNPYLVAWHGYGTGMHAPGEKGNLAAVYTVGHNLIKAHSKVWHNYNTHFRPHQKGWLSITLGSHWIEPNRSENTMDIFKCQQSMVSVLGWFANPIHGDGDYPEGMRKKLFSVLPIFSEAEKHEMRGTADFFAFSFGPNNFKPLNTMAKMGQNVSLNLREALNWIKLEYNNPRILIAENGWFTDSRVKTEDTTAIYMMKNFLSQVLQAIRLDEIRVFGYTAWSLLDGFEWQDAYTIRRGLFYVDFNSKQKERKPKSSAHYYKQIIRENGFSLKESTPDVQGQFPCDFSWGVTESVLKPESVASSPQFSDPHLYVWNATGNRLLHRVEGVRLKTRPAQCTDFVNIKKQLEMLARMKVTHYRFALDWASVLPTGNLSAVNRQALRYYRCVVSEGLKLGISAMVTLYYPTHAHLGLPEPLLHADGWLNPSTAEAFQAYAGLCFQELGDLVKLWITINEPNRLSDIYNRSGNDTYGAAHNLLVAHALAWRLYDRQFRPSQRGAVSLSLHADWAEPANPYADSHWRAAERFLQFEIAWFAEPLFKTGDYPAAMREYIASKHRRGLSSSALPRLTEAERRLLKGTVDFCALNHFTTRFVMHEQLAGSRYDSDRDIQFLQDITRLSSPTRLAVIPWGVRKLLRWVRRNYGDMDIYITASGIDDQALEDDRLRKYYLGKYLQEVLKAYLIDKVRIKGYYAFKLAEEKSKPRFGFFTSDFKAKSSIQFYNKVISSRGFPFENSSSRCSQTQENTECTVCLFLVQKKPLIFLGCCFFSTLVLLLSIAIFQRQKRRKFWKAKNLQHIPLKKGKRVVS

Row | koff (human beta-Klotho (KLB)) [s⁻¹] | EC50 [1] [pM] | Emax [1] [%] | Binder
1 | 0.00175 | 70 | 1010 | Ab0326 (antibody, IgG4, V domains shown, IgG4 PE) VH: QVTLKESGPVLVKPTETLTLTCTVSGFSLNNARVGVSWIRQPPGKALEWLAHIFSNDEKSYSTSLKSRLTISKDTSKSQVVLTMTNMDPVDTATYYCARSVVTGGYYYEGMDVWGQGTTVTVSS VL: SYVLTQPPSVSVAPGQTARITCGGSNIGSESVHWYQQKPGQAPVLVVYYESDRPSGIPERFSGSNSGNTATLTISRVEAGDEADYYCQVWEGSSDHVVFGGGTKLTVLG
2 | 0.00116 | 50 | 1080 | Ab0310 (antibody, IgG4, V domains shown, IgG4 PE) VH: QVTLKESGPVLVKPTETLTLTCTVSGFSLNNARVGVSWIRQPPGKALEWLAHIFSNDEKSYSTSLKSRLTISKDTSKSQVVLTMTNMDPVDTATYYCARSVVTGGYYYEGMDVWGQGTTVTVSS VL: SYVLTQPPSVSVAPGQTARITCGGSNIGSESVHWYQQKPGQAPVLVVYDESDRPSGIPERFSGSNSGNTATLTISRVEAGDEADYYCQVWDGESDHVVFGGGTKLTVLG
3 | 0.000402 | 50 | 1110 | Ab0314 (antibody, IgG4, V domains shown, IgG4 PE) VH: QVTLKESGPVLVKPTETLTLTCTVSGFSLNNARVGVSWIRQPPGKALEWLAHIFSNDEKSYSTSLKSRLTISKDTSKSQVVLTMTNMDPVDTATYYCARSVVTGGYYYEGMDVWGQGTTVTVSS VL: SYVLTQPPSVSVAPGQTARITCGGSNIGSESVHWYQQKPGQAPVLVVYDDSDRPSGIPERFSGSNSGNTATLTISRVEAGDEADYYCQVWTGESDHVVFGGGTKLTVLG
4 | 0.00103 | 40 | 1210 | Ab0309 (antibody, IgG4, V domains shown, IgG4 PE) VH: QVTLKESGPVLVKPTETLTLTCTVSGFSLNNARVGVSWIRQPPGKALEWLAHIFSNDEKSYSTSLKSRLTISKDTSKSQVVLTMTNMDPVDTATYYCARSVVTGGYYYEGMDVWGQGTTVTVSS VL: SYVLTQPPSVSVAPGQTARITCGGNNIGSESVHWYQQKPGQAPVLVVYDESDRPSGIPERFSGSNSGNTATLTISRVEAGDEADYYCQVWDGESDHVVFGGGTKLTVLG
5 | 0.00053 | 70 | 1010 | Ab0312 (antibody, IgG4, V domains shown, IgG4 PE) VH: QVTLKESGPVLVKPTETLTLTCTVSGFSLNNARVGVSWIRQPPGKALEWLAHIFSNDEKSYSTSLKSRLTISKDTSKSQVVLTMTNMDPVDTATYYCARSVVTGGYYYEGMDVWGQGTTVTVSS VL: SYVLTQPPSVSVAPGQTARITCGGSNIGSESVHWYQQKPGQAPVLVVYYESDRPSGIPERFSGSNSGNTATLTISRVEAGDEADYYCQVWDGESDHVVFGGGTKLTVLG
6 | 0.0013 | 50 | 1080 | Ab0311 (antibody, IgG4, V domains shown, IgG4 PE) VH: QVTLKESGPVLVKPTETLTLTCTVSGFSLNNARVGVSWIRQPPGKALEWLAHIFSNDEKSYSTSLKSRLTISKDTSKSQVVLTMTNMDPVDTATYYCARSVVTGGYYYEGMDVWGQGTTVTVSS VL: SYVLTQPPSVSVAPGQTARITCGGNNIGSESVHWYQQKPGQAPVLVVYYESDRPSGIPERFSGSNSGNTATLTISRVEAGDEADYYCQVWDGESDHVVFGGGTKLTVLG
7 | 0.00143 | 50 | 995 | Ab0332 (antibody, IgG4, V domains shown, IgG4 PE) VH: QVTLKESGPVLVKPTETLTLTCTVSGFSLNNARVGVSWIRQPPGKALEWLAHIFSNDEKSYSTSLKSRLTISKDTSKSQVVLTMTNMDPVDTATYYCARSVVTGGYYYEGMDVWGQGTTVTVSS VL: SYVLTQPPSVSVAPGQTARITCGGSNIGSESVHWYQQKPGQAPVLVVYSESDRPSGIPERFSGSNSGNTATLTISRVEAGDEADYYCQVWEGASDHVVFGGGTKLTVLG
8 | 0.000346 | 50 | 995 | Ab0327 (antibody, IgG4, V domains shown, IgG4 PE) VH: QVTLKESGPVLVKPTETLTLTCTVSGFSLNNARVGVSWIRQPPGKALEWLAHIFSNDEKSYSTSLKSRLTISKDTSKSQVVLTMTNMDPVDTATYYCARSVVTGGYYYEGMDVWGQGTTVTVSS VL: SYVLTQPPSVSVAPGQTARITCGGSNIGSESVHWYQQKPGQAPVLVVYYYSDRPSGIPERFSGSNSGNTATLTISRVEAGDEADYYCQVWEGESDHVVFGGGTKLTVLG
9 | 0.000251 | 200 | 769 | Ab0333 (antibody, IgG4, V domains shown, IgG4 PE) VH: QVTLKESGPVLVKPTETLTLTCTVSGFSLNNARVGVSWIRQPPGKALEWLAHIFSNDEKSYSTSLKSRLTISKDTSKSQVVLTMTNMDPVDTATYYCARSVVTGGYYYEGMDVWGQGTTVTVSS VL: SYVLTQPPSVSVAPGQTARITCGGSNIGSESVHWYQQKPGQAPVLVVYSYSDRPSGIPERFSGSNSGNTATLTISRVEAGDEADYYCQVWAGSSDHVVFGGGTKLTVLG

Further lines, the binder ahead of its results:

Row | Binder | koff (human beta-Klotho (KLB)) [s⁻¹] | EC50 [1] [pM] | Emax [1] [%]
10 | Ab0236 (antibody, IgG4, V domains shown, IgG4 PE) VH: not shown VL: SYVLTQPPSVSVAPGQTARITCGGNNIGSESVHWYQQKPGQAPVLVVYDDSDRPSGIPERFSGSNSGNTATLTISRVEAGDEADYYCQVWDGASDHVVFGGGTKLTVLG | 0.000151 | 50 | 2190
11 | Ab0295 (antibody, IgG4, V domains shown, IgG4 PE) VH: QVTLKESGPVLVKPTETLTLTCTVSGFSLNNARVGVSWIRQPPGKALEWLAHIFSNDEKSYSTSLKSRLTISKDTSKSQVVLTMTNMDPVDTATYYCARSVVTGGYYYEGMDVWGQGTTVTVSS VL: SYVLTQPPSVSVAPGQTARITCGGSNIGSESVHWYQQKPGQAPVLVVYYDSDRPSGIPERFSGSNSGNTATLTISRVEAGDEADYYCQVWDGNSDHVVFGGGTKLTVLG | 0.00157 | 70 | 1310
12 | Ab0307 (antibody, IgG4, V domains shown, IgG4 PE) VH: QVTLKESGPVLVKPTETLTLTCTVSGFSLNNARVGVSWIRQPPGKALEWLAHIFSNDEKSYSTSLKSRLTISKDTSKSQVVLTMTNMDPVDTATYYCARSVVTGGYYYEGMDVWGQGTTVTVSS VL: SYVLTQPPSVSVAPGQTARITCGGNNIGSESVHWYQQKPGQAPVLVVYYDSDRPSGIPERFSGSNSGNTATLTISRVEAGDEADYYCQVWDGESDHVVFGGGTKLTVLG | 0.00118 | 60 | 1150
13 | Ab0296 (antibody, IgG4, V domains shown, IgG4 PE) VH: QVTLKESGPVLVKPTETLTLTCTVSGFSLNNARVGVSWIRQPPGKALEWLAHIFSNDEKSYSTSLKSRLTISKDTSKSQVVLTMTNMDPVDTATYYCARSVVTGGYYYEGMDVWGQGTTVTVSS VL: SYVLTQPPSVSVAPGQTARITCGGSNIGSESVHWYQQKPGQAPVLVVYDESDRPSGIPERFSGSNSGNTATLTISRVEAGDEADYYCQVWDGNSDHVVFGGGTKLTVLG | 0.00137 | 60 | 1290
14 | Ab0308 (antibody, IgG4, V domains shown, IgG4 PE) VH: QVTLKESGPVLVKPTETLTLTCTVSGFSLNNARVGVSWIRQPPGKALEWLAHIFSNDEKSYSTSLKSRLTISKDTSKSQVVLTMTNMDPVDTATYYCARSVVTGGYYYEGMDVWGQGTTVTVSS VL: SYVLTQPPSVSVAPGQTARITCGGSNIGSESVHWYQQKPGQAPVLVVYYDSDRPSGIPERFSGSNSGNTATLTISRVEAGDEADYYCQVWDGESDHVVFGGGTKLTVLG | 0.0013 | 60 | 1070
15 | Ab0306 (antibody, IgG4, V domains shown, IgG4 PE) VH: QVTLKESGPVLVKPTETLTLTCTVSGFSLNNARVGVSWIRQPPGKALEWLAHIFSNDEKSYSTSLKSRLTISKDTSKSQVVLTMTNMDPVDTATYYCARSVVTGGYYYEGMDVWGQGTTVTVSS VL: SYVLTQPPSVSVAPGQTARITCGGSNIGSESVHWYQQKPGQAPVLVVYDDSDRPSGIPERFSGSNSGNTATLTISRVEAGDEADYYCQVWDGESDHVVFGGGTKLTVLG | 0.000288 | 50 | 1330
16 | Ab0298 (antibody, IgG4, V domains shown, IgG4 PE) VH: QVTLKESGPVLVKPTETLTLTCTVSGFSLNNARVGVSWIRQPPGKALEWLAHIFSNDEKSYSTSLKSRLTISKDTSKSQVVLTMTNMDPVDTATYYCARSVVTGGYYYEGMDVWGQGTTVTVSS VL: SYVLTQPPSVSVAPGQTARITCGGSNIGSESVHWYQQKPGQAPVLVVYYESDRPSGIPERFSGSNSGNTATLTISRVEAGDEADYYCQVWDGNSDHVVFGGGTKLTVLG | 0.0016 | 80 | 1180
17 | Ab0297 (antibody, IgG4, V domains shown, IgG4 PE) VH: QVTLKESGPVLVKPTETLTLTCTVSGFSLNNARVGVSWIRQPPGKALEWLAHIFSNDEKSYSTSLKSRLTISKDTSKSQVVLTMTNMDPVDTATYYCARSVVTGGYYYEGMDVWGQGTTVTVSS VL: SYVLTQPPSVSVAPGQTARITCGGNNIGSESVHWYQQKPGQAPVLVVYYESDRPSGIPERFSGSNSGNTATLTISRVEAGDEADYYCQVWDGNSDHVVFGGGTKLTVLG | 0.00156 | 70 | 1210
